Assay [1] has as its target T1, mouse MuSK (mouse, UniProt Q61006 22-494, limits assumed).
T1 construct: Coated on ELISA plates or on the Biacore chip; also called full length mouse MuSK; mouse MuSK (in house produced in HEK293 cells)
T1 sequence (looked up): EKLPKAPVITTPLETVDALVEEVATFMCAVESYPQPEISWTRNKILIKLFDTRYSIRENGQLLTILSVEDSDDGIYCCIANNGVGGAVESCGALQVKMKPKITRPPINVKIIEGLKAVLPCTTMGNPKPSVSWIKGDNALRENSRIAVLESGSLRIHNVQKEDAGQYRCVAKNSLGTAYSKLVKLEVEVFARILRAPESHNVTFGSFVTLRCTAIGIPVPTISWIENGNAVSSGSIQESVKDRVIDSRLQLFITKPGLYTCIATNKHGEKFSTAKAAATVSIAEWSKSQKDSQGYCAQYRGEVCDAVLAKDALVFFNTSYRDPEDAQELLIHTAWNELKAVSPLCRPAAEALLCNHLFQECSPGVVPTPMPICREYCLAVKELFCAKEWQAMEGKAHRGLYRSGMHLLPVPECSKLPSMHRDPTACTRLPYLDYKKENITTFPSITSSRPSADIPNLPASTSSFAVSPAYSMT
The experiment in a line: Biacore, MuSK on chip, association pH 7.4, dissociation pH 5.5; association at pH 7.4, dissociation at pH 5.5. How it is done: (§1) For affinity determination, a CMS chip was coated with cynomolgus monkey, rat and mouse MuSK (200RU) and 66.7 nM of antibody was applied and kinetic parameters calculated (Table 8). The following conclusions could be drawn: (1) 3B2g1m3 and 3B2g2m3 (m3 variants) show significant drop in affinity for MuSK for all species tested; (2) 3B2g1m2 and 3B2g2m2 (m2 variants) show some drop in affinity for MuSK; (3) 3B2g1m1, 3B2g2m1, 3B2g1m4, 3B2g2m4 (ml and m4 variants) show no drop in affinity for MuSK for all species tested; and (4) for all clones there is no difference between g1 and g2 variants (VL methionine versus serine in CDR3).
(§2) In order to study pH dependent binding of our antibodies to MuSK, the same Biacore was used as above, but now dissociation was done at pH 5.5 instead of pH 7.4. […] The following conclusions could be drawn for the different variants: (1) 3B2g1m3 and 3B2g2m3 (m3 variants) show significant drop in affinity for MuSK for all species tested; (2) 3B2g1m2 and 3B2g2m2 (m2 variants) show some drop in affinity for MuSK; (3) 3B2g1m1, 3B2g2m1, 3B2g1m4, 3B2g2m4 (m1 and m4 variants) show no drop in affinity for MuSK for all species tested; and (4) for all clones there is no difference between g1 and g2 variants (VL methionine versus serine in CDR3).
(In general: Surface plasmon resonance follows binding to a sensor surface in real time, without labels.)

The target in assay [2] is T2, cynomolgus monkey MuSK (cynomolgus monkey, UniProt A0A2K5USF6 24-487). The experiment in a line: Biacore, MuSK on chip (200RU), 66.7 nM mAb, dissociation pH 7.4. How it is done: as §1
The target of assay [3] is T1, mouse MuSK. The description is as above. How it is done: as §1
In assay [4] the target is T3, rat MuSK (rat, UniProt Q62838 22-494, limits assumed).
T3 construct: Coated on Biacore chip (200RU) or ELISA plate
T3 sequence (looked up): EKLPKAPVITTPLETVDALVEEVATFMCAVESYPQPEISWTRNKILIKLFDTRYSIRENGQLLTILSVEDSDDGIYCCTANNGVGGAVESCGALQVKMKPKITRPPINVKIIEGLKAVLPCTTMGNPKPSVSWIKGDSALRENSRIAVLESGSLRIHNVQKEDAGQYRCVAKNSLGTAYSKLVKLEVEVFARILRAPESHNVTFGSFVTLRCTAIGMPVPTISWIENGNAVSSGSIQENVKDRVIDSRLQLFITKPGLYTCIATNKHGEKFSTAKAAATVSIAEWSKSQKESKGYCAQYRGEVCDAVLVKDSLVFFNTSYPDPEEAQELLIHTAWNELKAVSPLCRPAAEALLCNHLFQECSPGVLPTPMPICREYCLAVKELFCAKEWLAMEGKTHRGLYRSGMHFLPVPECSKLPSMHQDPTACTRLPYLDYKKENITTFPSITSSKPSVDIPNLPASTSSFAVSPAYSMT
The description is as above. The procedure:
as §1

Assay [5] concerns the target T4, mouse MuSK, endogenous (C2C12 myotubes; neuromuscular synapses of mice) (mouse, UniProt Q61006 22-868).
T4 sequence (looked up): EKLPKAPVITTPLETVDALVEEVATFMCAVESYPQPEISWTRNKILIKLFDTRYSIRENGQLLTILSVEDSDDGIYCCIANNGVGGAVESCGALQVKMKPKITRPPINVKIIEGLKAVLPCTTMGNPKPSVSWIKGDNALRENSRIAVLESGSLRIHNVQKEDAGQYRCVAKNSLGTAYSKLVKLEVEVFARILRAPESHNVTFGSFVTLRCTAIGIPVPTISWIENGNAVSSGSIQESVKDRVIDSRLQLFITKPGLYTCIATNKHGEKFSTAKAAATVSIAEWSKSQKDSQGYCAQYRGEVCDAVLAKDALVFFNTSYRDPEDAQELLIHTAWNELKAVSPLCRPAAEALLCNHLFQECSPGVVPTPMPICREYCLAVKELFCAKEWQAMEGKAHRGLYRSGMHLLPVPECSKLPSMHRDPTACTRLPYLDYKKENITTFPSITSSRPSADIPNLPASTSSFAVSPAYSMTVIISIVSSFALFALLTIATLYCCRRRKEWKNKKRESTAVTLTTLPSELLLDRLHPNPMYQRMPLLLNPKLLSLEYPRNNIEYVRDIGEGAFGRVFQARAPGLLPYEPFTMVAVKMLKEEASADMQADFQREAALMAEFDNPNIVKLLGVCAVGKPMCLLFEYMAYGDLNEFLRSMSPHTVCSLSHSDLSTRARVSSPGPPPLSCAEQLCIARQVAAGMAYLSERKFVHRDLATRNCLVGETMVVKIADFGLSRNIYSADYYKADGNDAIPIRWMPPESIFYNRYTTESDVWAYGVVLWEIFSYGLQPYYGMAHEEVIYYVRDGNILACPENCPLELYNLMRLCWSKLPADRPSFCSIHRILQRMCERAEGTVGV
The experiment in a line: cell-based or functional assay.

Assay [6] has as its target T2, cynomolgus monkey MuSK. The experiment in a line: Biacore, MuSK on chip, association pH 7.4, dissociation pH 5.5. How it is done: as §1, §2
Assay [7] has as its target T1, mouse MuSK. The assay is described as above. The procedure: as §1, §2
For assay [8], the target named is T3, rat MuSK. Described as above. How it is done:
as §1, §2

Assay [9] has as its target T4, mouse MuSK, endogenous (C2C12 myotubes; …). The experiment in a line: in vivo: wildtype mice injected i.p., diaphragm stained two days later with anti-human F(ab')2 Alexa 647 and Alexa 488-alpha-BGT; ratio of signal intensities at the synapse [continued].
The target of assay [10] is T5, hECD: full-length extracellular region of human MuSK (E22 to T495) with C-terminal Avi- and His6-tags (human, UniProt O15146 22-495, biotinylated in vitro using the BirA enzyme).
T5 construct: also called human ECD; not shown: Avi- and His6-tags
T5 sequence: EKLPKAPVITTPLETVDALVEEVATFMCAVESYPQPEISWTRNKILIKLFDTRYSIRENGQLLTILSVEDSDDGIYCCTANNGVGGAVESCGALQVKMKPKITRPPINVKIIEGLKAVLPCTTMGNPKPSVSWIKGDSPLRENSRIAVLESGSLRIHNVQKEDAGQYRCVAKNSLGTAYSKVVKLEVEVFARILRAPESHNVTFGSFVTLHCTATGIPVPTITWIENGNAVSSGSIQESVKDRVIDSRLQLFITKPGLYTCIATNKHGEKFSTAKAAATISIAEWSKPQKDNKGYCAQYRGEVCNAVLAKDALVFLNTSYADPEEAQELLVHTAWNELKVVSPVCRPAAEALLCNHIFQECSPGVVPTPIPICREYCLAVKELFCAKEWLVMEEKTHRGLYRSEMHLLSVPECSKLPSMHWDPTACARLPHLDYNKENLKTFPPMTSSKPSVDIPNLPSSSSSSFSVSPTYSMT
The experiment in a line: bead-binding assay, IgG format: biotinylated antigen on streptavidin beads, flow cytometry, 1:1 fit; average ± s.d., n=3.

The target in assay [11] is T6, mFz: Fz domain and C-terminal flanking sequence of mouse MuSK (D307 to T494) with C-terminal Avi- and … (mouse, UniProt Q61006 307-494, limits assumed, biotinylated in vitro using the BirA enzyme).
T6 construct: also called mouse Fz; not shown: Avi- and His6-tags
T6 sequence (looked up): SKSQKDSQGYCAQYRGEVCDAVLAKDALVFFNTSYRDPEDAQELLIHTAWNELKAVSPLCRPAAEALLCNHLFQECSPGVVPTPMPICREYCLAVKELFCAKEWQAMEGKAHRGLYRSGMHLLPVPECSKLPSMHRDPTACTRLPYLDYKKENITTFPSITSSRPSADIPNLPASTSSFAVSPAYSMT
The assay is described as above.

Assay [12] has as its target T7, mECD: full-length extracellular region of mouse MuSK (E22 to T494) with C-terminal Avi- and His6-tags (mouse, UniProt Q61006 22-494, biotinylated in vitro using the BirA enzyme).
T7 construct: range 22-494; also called mouse ECD; not shown: Avi- and His6-tags
T7 sequence (looked up): T1 sequence (looked up)
The assay is described as above.

Assay [13] deals with T8, hFz: Fz domain and C-terminal flanking sequence of human MuSK (K314-T495) with C-terminal Avi- and His6-tags (human, UniProt O15146 314-495, biotinylated in vitro using the BirA enzyme).
T8 construct: also called human Fz; not shown: Avi- and His6-tags
T8 sequence: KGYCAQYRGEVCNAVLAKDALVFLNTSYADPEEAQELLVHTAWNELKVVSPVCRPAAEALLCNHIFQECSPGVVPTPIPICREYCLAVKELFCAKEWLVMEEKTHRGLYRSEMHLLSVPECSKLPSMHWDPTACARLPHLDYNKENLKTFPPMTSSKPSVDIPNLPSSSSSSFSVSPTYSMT
The description is as above.

T2 sequence (A0A2K5USF6 entry or part of it): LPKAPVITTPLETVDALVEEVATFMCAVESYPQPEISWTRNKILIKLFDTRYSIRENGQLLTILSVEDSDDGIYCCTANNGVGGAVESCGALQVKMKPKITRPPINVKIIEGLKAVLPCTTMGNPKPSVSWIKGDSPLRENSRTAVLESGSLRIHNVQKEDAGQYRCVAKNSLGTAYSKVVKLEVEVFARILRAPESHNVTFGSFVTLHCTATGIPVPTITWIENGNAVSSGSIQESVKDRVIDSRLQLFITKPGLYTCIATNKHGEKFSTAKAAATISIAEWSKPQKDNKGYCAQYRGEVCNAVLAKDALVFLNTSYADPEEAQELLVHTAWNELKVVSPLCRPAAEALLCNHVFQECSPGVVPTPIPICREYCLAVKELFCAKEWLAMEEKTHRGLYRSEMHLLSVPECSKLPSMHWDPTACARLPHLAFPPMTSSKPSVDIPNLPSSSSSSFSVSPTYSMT

B1: 3B2g1m2 (antibody, human IgG1, V domains shown)
VH: EVQLLESGGGLVQPGGSLRLSCAASGFTFSDYGMSWVRQAPGKGLEWVSAIPGSGGSTYYKESVKGRFTISRDNSKNTLYLQMNSLRAEDTAVYYCAKRSGRIAFGALDAWGQGTLVTVSS
VL: QTVVTQEPSFSVSPGGTVTLTCGLSSGSVTSSNYPDWYQQTPGQAPRTLIYSTDSRHSGVPDRFSGSILGNKAALTITGAQADDESDYYCGLYMYSGSKNYVFGGGTKLTVL
notes: human IgG1-LALA backbone; produced in HEK293 cells
Consider B1, for which the koff with mouse MuSK [1] is 0.00915 s⁻¹; in the assay with cynomolgus monkey MuSK [2], 0.00183 s⁻¹; with mouse MuSK [3], 0.00253 s⁻¹; with rat MuSK [4], 0.00314 s⁻¹; with cynomolgus monkey MuSK [6] it was 0.0034 s⁻¹; with rat MuSK [8] it was 0.0865 s⁻¹. The R0 in the assay with cynomolgus monkey MuSK [2] was 133 RU; with mouse MuSK [3], 155 RU; with rat MuSK [4], 125 RU; with cynomolgus monkey MuSK [6], 148 RU; with mouse MuSK [7] it was 152 RU; in the assay with rat MuSK [8] it was 136 RU. Moreover, the kon came out at 850000 M⁻¹ s⁻¹ with cynomolgus monkey MuSK [2]; 1.61e+06 M⁻¹ s⁻¹ in the assay with mouse MuSK [3]; 1.45e+06 M⁻¹ s⁻¹ with rat MuSK [4]; 800000 M⁻¹ s⁻¹ with cynomolgus monkey MuSK [6]; 70000 M⁻¹ s⁻¹ with mouse MuSK [7]; 40000 M⁻¹ s⁻¹ in the assay with rat MuSK [8]. In addition, the “MuSK phosphorylation in C2C12 myotubes” value in assay [5] is ~80 % of 1 nM agrin.

B2: mIgG2a-X17 (antibody, V domains shown)
VH: EVQLVESGGGLVQPGGSLRLSCAASGFTISYSSIHWVRQAPGKGLEWVASIYSSSGSTYYADSVKGRFTISADTSKNTAYLQMNSLRAEDTAVYYCARGDHGYYVFGYLGMDYWGQGTLVTVSS
VL: DIQMTQSPSSLSASVGDRVTITCRASQSVSSAVAWYQQKPGKAPKLLIYSASSLYSGVPSRFSGSRSGTDFTLTISSLQPEDFATYYCQQSYKPGALITFGQGTKVEIK
notes: chimeric antibody of a human Fab (human CH1) and mouse IgG2a Fc with the LALAPG mutations; also called X17-mIgG2a-LALAPG; antibody X17
On to B2, for which the “EC50 (read off the curve)” value in assay [9] is around 0.5 mg/kg. The Kd in [10] is 0.97 nM; in assay [11], 0.74 nM; in assay [12] it was 1.1 nM; in assay [13] it was 0.61 nM.

Usually koff stands for the first-order rate constant of dissociation. One may read the kon as the second-order rate constant of association. The term Kd denotes the equilibrium constant for the complex coming apart.
